Data published in the Human Domainome abundance scans (Beltran et al. 2025).

B1: Ventral anterior homeobox 1, residues 102 to 157; numbered along this chain, Q5SQQ9 (parent)
chain: RTRTSFTAEQLYRLEMEFQRCQYVVGRERTELARQLNLSETQVKVWFQNRRTKQKK

Variants of: B1
Experiment: abundance fitness (aPCA) (normalised: wild type 0, dead -1); higher = more abundant; growth selection in yeast, the domain comes from the species named
Settings: Homo sapiens

Abundance fitness, by site and new letter:
L14: M -0.368; W -0.747; I -0.54; A -0.708
L38: V 0.027; R -0.576; K -0.773
E28: T -0.247; L -0.369; Y -0.661; N -0.459; F -0.513; K -0.78; S -0.338; M -0.446; H -0.318
Q42: W -0.397; V -0.153; Y 0.053; F -0.266; I 0.007; P -0.824
R3: L 0.156; A 0.002; Q 0.084; S 0.266; K 0.168
V43: W -0.871; Q -0.817; S -0.561; C -0.508; L -0.166
R20: Q -0.226; S -0.04; E -0.261; T -0.305; C -0.303; D 0.149; M -0.001; N 0.251; F -0.47
V24: E -0.367; Q -0.559; S -0.09; H -0.307; C 0.12; D -0.347; Y -0.421
R50: H -0.624; E 0.009
S5: Q 0.028; I -0.177; M 0.08; L -0.179
V25: P -0.29; M -0.396; N -0.326; W -0.633; S -0.071; R -0.16; A 0.042
V45: R -0.156; F -0.03; Y -0.046; K -0.258; A 0.02
F47: P -0.836; A -1.02; R -0.873; D -0.674
Y12: A 0.044; V -0.085; P -0.967; M 0.102
A33: L -0.693; C -0.295; D -0.938; G -0.375; T -0.557; E -0.905; Q -0.989; W -0.483; P -0.997
K44: N 0.002; C -0.069; G -0.049; F -0.464; P -0.94; V -0.032; S 0.106
F6: L -0.029; Q -0.347; E -0.559; D -0.445; W -0.052
T52: Y -0.137; R -0.249; K 0.091; C -0.165; L -0.141; N -0.037; W -0.316
F18: C -0.741; V -0.887; M -0.674; I -0.689
Q19: P -0.732; V -0.153; F -0.33; A -0.002; M -0.133; I -0.165
L36: W -0.696; S -0.687; P -0.711; N -0.935; G -0.916
K55: G 0.043; N 0.081; D 0.305; M -0.288; L 0.128; W -0.105; Y -0.199
S39: W -0.959; C -0.266; H -0.334; F -0.435; P 0.033; G -0.375; N 0.063
T41: R -0.336; F -0.129; E 0.106; G 0.03; M 0.095; I -0.5; H -0.027; Y -0.2; K -0.381; L 0.024
E17: L -0.558; S -0.294; F -0.031; W -0.359; H -0.044; D -0.65; G -0.679; R -0.421
T4: S -0.058; L 0.205; P -0.074; F -0.347; K -0.079; G -0.269; V -0.092; D -0.14
T7: K -0.589; H -0.407; V -0.466; M -0.452; E -0.279; N -0.105; G -0.311
R27: Y -0.108; L -0.049; F -0.141; Q 0.009; I 0.19
C21: A -0.166; H -0.215; F -0.21; S -0.013; V -0.054
W46: V -0.63; T -0.922; Q -0.958; S -0.627; L -0.717; C -0.909; M -0.919
T30: A -0.102; V -0.064; Q -0.329; D -0.468; G -0.215; I -0.211; K -0.19
R13: Y -0.316; I 0.092; L -0.068; E -0.513; H -0.066; G -0.207; T -0.113
G26: D -0.153; A -0.155; W -0.892; P -0.208; I -0.63; T -0.453; L -0.297; F -0.278
T2: W -0.566; F -0.3; E -0.012; Q 0.135; P -0.098; H -0.38; G 0.013; S -0.074; R -0.166; C -1.01
Y23: A 0.082; K 0.051; V -0.045; F -0.088; G -0.21; H 0.04; M 0.181
E40: K -0.676; R -0.57; D -0.128; L -0.711; V -0.315; I -0.557; P -0.318; Y -0.712
R1: T -0.465; C 0.058; I 0.024; S -0.042
R34: S -0.061; L -0.273; A 0.179; P -0.907; C -0.395; W -0.42
Q48: L -0.051; A -0.167; R -0.172; K 0.142; C -0.051; G -0.314; D -0.11; V -0.115; M -0.122
E9: V -0.157; I -0.456; F 0.005; W -0.12; P -0.669; A -0.244; S -0.408; M -0.235; C -0.299; N -0.733
K56: A -0.291; W 0.078; R -0.127; V 0.005
L32: W -1.04; K -0.641; V -0.542; M -0.314
E15: C -0.803; W -0.71; D -0.379; V -0.847
K53: F 0.174; H -0.226; N 0.199; G -0.037; A 0.044; L 0.183; T 0.197
N49: V -0.1; D -0.019; R -0.26; S -0.277; G -0.047
Q54: V -0.017; L -0.045; I -0.191; P 0.013; H -0.149
E31: G -0.454; Y -1.04; W -0.721; T -0.243; F -0.795; I -0.399; K -0.592; V -0.315
M16: Y -0.173; I -0.295; N -0.407; S -0.027; R -0.233; C -0.055; Q 0.008
A8: L -0.14; Y -0.158; S -0.064; Q -0.301; E 0; N 0.059
L11: Y -0.335; Q 0.231; G -0.254; F -0.159; T -0.149; H 0.005
R51: H -0.038; M -0.333
N37: R -0.134; S -0.239; T -0.254; Q 0.06; L -0.307; E -0.033
Q22: P -0.133; S -0.087; R -0.32; M -0.249; F -0.585; A -0.033; G 0.033
Q35: I -0.236; R -0.028; M -0.087; H -0.167; Y -0.414; C -0.08
